Drawing on article PMC9609006, this text covers Km for 2 proteins.

Substrate in data set [1]: OC[C@H]1O[C@H](F)[C@H](O)[C@@H](O)[C@@H]1O
Briefly: purified protein. The settings on record: thioglycosynthase reaction; glycosyl donor; thiol acceptor p-nitrothiophenol.

Substrate in data set [2]: O=[N+]([O-])c1ccc(S)cc1
Briefly: purified protein. The settings on record: thioglycosynthase reaction; thiol acceptor; donor α-D-glucopyranosyl fluoride.

Numbering of substitutions follows the chain as printed. Numbers in names are those of the source.

B1: HorGH1 (Halothermothrix orenii H 168; E166A/E354G/M299R) (protein)
chain: MAKIIFPEDFIWGAATSSYQIEGAFNEDGKGESIWDRFSHTPGKIENGDTGDIACDHYHLYREDIELMKEIGIRSYRFSTSWPRILPEGKGRVNQKGLDFYKRLVDNLLKANIRPMITLYHWDLPQALQDKGGWTNRDTAKYFAEYARLMFEEFNGLVDLWVTHNAPWVVAFEGHAFGNHAPGTKDFKTALQVAHHLLLSHGMAVDIFREEDLPGEIGITLNLTPAYPAGDSEKDVKAASLLDDYINAWFLSPVFKGSYPEELHHIYEQNLGAFTTQPGDMDIISRDIDFLGINYYSRRVVRHKPGDNLFNAEVVKMEDRPSTEMGWEIYPQGLYDILVRVNKEYTDKPLYITGNGAAFDDKLTEEGKIHDEKRINYLGDHFKQAYKALKDGVPLRGYYVWSLMDNFEWAYGYSKRFGLIYVDYENGNRRFLKDSALWYREVIEKGQVEAN
With B1, the results for the Km in “purified protein [1]” and in “purified protein [2]” were 2.26 mM and 3.82 mM, respectively.

B2: HorGH1 (Halothermothrix orenii H 168; E166A/E354G) (protein)
chain: B1 chain with R299M
For B2, the Km in “purified protein [1]” is given as 2.12 mM; in “purified protein [2]”, 7.46 mM.
